± gives the uncertainty stated by the source.
B1: Membrane-associated guanylate kinase, WW and PDZ domain-containing protein 2, residues 601 to 682; numbered along this chain, Q86UL8 (parent)
chain: AELMTLTIVKGAQGFGFTIADSPTGQRVKQILDIQGCPGLCEGDLIVEINQQNVQNLSHTEVVDILKDCPIGSETSLIIHRG

Variants of: B1
Test: abundance fitness (aPCA) (normalised: wild type 0, dead -1); higher = more abundant; growth selection in yeast, the domain comes from the species named
Conditions: Homo sapiens

Abundance fitness of substitutions, site by site:
R27: D -0.42 ± 0.3, G -0.107 ± 0.1, C -0.589 ± 0.47, I 0.047 ± 0.3, V 0.047 ± 0.12, E -0.173 ± 0.1, S -0.158 ± 0.096, W -0.054 ± 0.18, P -0.382 ± 0.18, L -0.007 ± 0.12, H -0.089 ± 0.21, A -0.042 ± 0.17, T 0.021 ± 0.11, M -0.066 ± 0.29
L32: K -0.295 ± 0.12, Y -0.16 ± 0.3, P -0.119 ± 0.13, W -0.158 ± 0.22, N -0.124 ± 0.29, A -0.218 ± 0.27, I -0.057 ± 0.13, T -0.023 ± 0.12, G 0.021 ± 0.059, Q -0.212 ± 0.25, M 0.035 ± 0.24, D 0.022 ± 0.16, V 0.052 ± 0.12, C -0.197 ± 0.18, S 0.024 ± 0.09, R -0.069 ± 0.082
T18: C -0.044 ± 0.049, F -0.149 ± 0.088, H -0.134 ± 0.073, W -0.075 ± 0.04, P -1.1 ± 0.12, I 0.008 ± 0.065, G -0.068 ± 0.032, K 0.044 ± 0.06, S -0.013 ± 0.038, M -0.061 ± 0.052, V -0.024 ± 0.033, E 0 ± 0.039, Y -0.032 ± 0.093, Q -0.066 ± 0.048, N 0.001 ± 0.086, D -0.011 ± 0.064, L 0.01 ± 0.038
G25: S -0.185 ± 0.051, R -0.356 ± 0.04, L -0.538 ± 0.056, F -0.314 ± 0.19, D -0.766 ± 0.23, N -0.162 ± 0.079, P -0.371 ± 0.075, T -0.318 ± 0.062, Q -0.255 ± 0.058, K -0.267 ± 0.089, E -0.127 ± 0.061, A -0.046 ± 0.041, W -0.531 ± 0.069, C -0.17 ± 0.08, Y -0.177 ± 0.1, M -0.191 ± 0.062, V -0.514 ± 0.051
A20: I 0.203 ± 0.27, Q 0.217 ± 0.28, S 0.003 ± 0.1, N -0.142 ± 0.17, K -0.026 ± 0.18, E -0.147 ± 0.16, M 0.228 ± 0.45, R -0.172 ± 0.081, G -0.069 ± 0.1, V -0.11 ± 0.085
I19: G -1.31 ± 0.28, P -0.023 ± 0.36, L -0.012 ± 0.085, Y -0.148 ± 0.12, Q -0.708 ± 0.32, R -1.16 ± 0.25, S -0.634 ± 0.17, T -0.169 ± 0.12, A -0.542 ± 0.19, H 0.134 ± 0.13, W -0.203 ± 0.1, E -0.872 ± 0.4, C -0.335 ± 0.38
Q30: C -0.205 ± 0.16, S -0.076 ± 0.098, V -0.102 ± 0.07, M 0.098 ± 0.12, T -0.117 ± 0.19, H -0.062 ± 0.15, F 0.234 ± 0.24, L 0.066 ± 0.1, W 0.04 ± 0.27, N -0.302 ± 0.48, R -0.111 ± 0.094, P -0.103 ± 0.11, Y -0.064 ± 0.15, A -0.052 ± 0.17, K 0.363 ± 0.34, D -0.022 ± 0.2, E -0.188 ± 0.14
T24: P -0.017 ± 0.041, G 0.041 ± 0.035, L -0.023 ± 0.041, N -0.004 ± 0.099, H 0.02 ± 0.071, V -0.08 ± 0.04, C -0.03 ± 0.066, R 0.007 ± 0.038, A -0.013 ± 0.037, E 0.024 ± 0.046, Q -0.035 ± 0.044, W -0.076 ± 0.06, F -0.053 ± 0.087, Y -0.021 ± 0.075, M -0.031 ± 0.057, D -0.037 ± 0.05
F15: R -0.266 ± 0.034, P -0.063 ± 0.041, G -0.221 ± 0.036, K -0.322 ± 0.044, V -0.003 ± 0.033, E -0.141 ± 0.044, Q -0.062 ± 0.039, W -0.002 ± 0.039, A -0.179 ± 0.045, N -0.144 ± 0.049, M 0.039 ± 0.044, D -0.118 ± 0.052, C -0.111 ± 0.042, L 0.004 ± 0.03, Y -0.048 ± 0.064, S -0.143 ± 0.031
G36: A -0.241 ± 0.24
P23: R -0.03 ± 0.038, H -0.303 ± 0.16, N -0.045 ± 0.11, L -0.018 ± 0.042, F -0.106 ± 0.091, M -0.072 ± 0.068, K 0.023 ± 0.049, G -0.09 ± 0.039, V -0.297 ± 0.04, I -0.17 ± 0.097, T -0.058 ± 0.053, C 0.021 ± 0.084, W -0.03 ± 0.053, E -0.022 ± 0.043, D -0.129 ± 0.1, Q -0.029 ± 0.056, Y -0.16 ± 0.13
D21: P -0.048 ± 0.14, G -0.082 ± 0.081, N -0.105 ± 0.45, C -0.14 ± 0.1, W -0.111 ± 0.065, F -0.208 ± 0.33, L 0.084 ± 0.11, Y -0.099 ± 0.15, K -0.039 ± 0.2, S -0.054 ± 0.083, V -0.064 ± 0.078, M 0.079 ± 0.24, A -0.126 ± 0.087, H -0.068 ± 0.45, E -0.023 ± 0.12
I31: V -0.035 ± 0.084, G -0.11 ± 0.084, Y -0.221 ± 0.14, N -0.219 ± 0.21, L 0.011 ± 0.083, H -0.316 ± 0.31, W -0.665 ± 0.15, P -0.181 ± 0.28, S -0.251 ± 0.079, R -0.283 ± 0.081, T -0.097 ± 0.089, A -0.101 ± 0.31, K 0.197 ± 0.41, C -0.185 ± 0.093, M -0.084 ± 0.12, Q -0.091 ± 0.22
S22: C -0.117 ± 0.2, Y -0.04 ± 0.23, D 0.048 ± 0.27, L -0.049 ± 0.085, R 0.03 ± 0.13, A 0.075 ± 0.1, W -0.056 ± 0.15, P -0.671 ± 0.19, T -0.076 ± 0.11, E -0.114 ± 0.097, K 0.062 ± 0.2, Q 0.023 ± 0.1, N -0.39 ± 0.17, G 0.03 ± 0.061, F -0.105 ± 0.094, V -0.063 ± 0.13
Q26: L -0.028 ± 0.041, D -0.176 ± 0.13, N -0.139 ± 0.12, W -0.105 ± 0.051, I -0.111 ± 0.12, K 0.038 ± 0.06, H -0.124 ± 0.14, F -0.194 ± 0.23, G -0.032 ± 0.04, T -0.007 ± 0.055, R -0.032 ± 0.039, E 0.016 ± 0.055, A 0.063 ± 0.047, Y 0.316 ± 0.4, S -0.071 ± 0.05, V -0.025 ± 0.042, C -0.039 ± 0.13, P 0.045 ± 0.088
G16: K -0.029 ± 0.035, A -0.144 ± 0.038, D 0.071 ± 0.049, E -0.059 ± 0.043, W -0.045 ± 0.037, I -0.268 ± 0.052, R -0.051 ± 0.028, P -0.006 ± 0.043, N 0.018 ± 0.051, H -0.044 ± 0.058, S -0.027 ± 0.035, T -0.048 ± 0.037, M -0.007 ± 0.039, Y -0.155 ± 0.053, Q -0.085 ± 0.04, F -0.101 ± 0.063, L -0.014 ± 0.033, C -0.002 ± 0.047
K29: H 0.181 ± 0.33, V -0.122 ± 0.086, A -0.095 ± 0.1, G -0.004 ± 0.087, Q -0.053 ± 0.13, I -0.395 ± 0.29, L -0.212 ± 0.099, E 0.084 ± 0.15, R -0.047 ± 0.062, S 0.039 ± 0.2, D 0.108 ± 0.28, C -0.091 ± 0.13
F17: L -0.124 ± 0.032, M -0.105 ± 0.044, G -1.11 ± 0.089, N -1.36 ± 0.36, S -1.29 ± 0.12, P -1.04 ± 0.1, W -0.022 ± 0.039, D -1.18 ± 0.28, Y -0.277 ± 0.061, K -0.978 ± 0.13, C -0.303 ± 0.047, I -0.057 ± 0.057, A -0.697 ± 0.05, Q -1.07 ± 0.23, E -0.75 ± 0.072, R -1.12 ± 0.091, H -0.881 ± 0.16, T -1.2 ± 0.13
D33: H -0.088 ± 0.071, Y 0.049 ± 0.1, Q 0.024 ± 0.076, P -0.147 ± 0.051, R -0.061 ± 0.041, C -0.092 ± 0.08, I -0.243 ± 0.11, T -0.02 ± 0.059, N -0.043 ± 0.082, E -0.089 ± 0.054, K -0.192 ± 0.084, G -0.11 ± 0.04, V -0.152 ± 0.052, W -0.117 ± 0.066, M -0.124 ± 0.06
I34: S -0.017 ± 0.063, M -0.061 ± 0.066, E -0.045 ± 0.07, G -0.021 ± 0.05, C -0.076 ± 0.086, W -0.101 ± 0.063, D -0.036 ± 0.08, K -0.007 ± 0.076, A -0.026 ± 0.053, H -0.153 ± 0.092, Q -0.031 ± 0.081, N 0.034 ± 0.13, R -0.092 ± 0.043, L 0.007 ± 0.064, V 0.017 ± 0.059, P -0.072 ± 0.068, F -0.066 ± 0.17, Y 0.013 ± 0.093, T -0.072 ± 0.067
G14: Q -0.052 ± 0.051, H -0.03 ± 0.041, I -0.168 ± 0.039, M -0.089 ± 0.046, E -0.016 ± 0.053, L -0.105 ± 0.032, R -0.093 ± 0.033, F -0.21 ± 0.042, T -0.02 ± 0.037, Y -0.071 ± 0.04, N 0.025 ± 0.041
V28: E -1.03 ± 0.27, Q -0.718 ± 0.38, P -1.09 ± 0.37, A -0.305 ± 0.22, L -0.215 ± 0.095, I 0.144 ± 0.23, T -0.538 ± 0.34, N -0.564 ± 0.29, C -0.077 ± 0.14, G -0.655 ± 0.1, S -0.849 ± 0.2
Q35: V -0.064 ± 0.17, S -0.005 ± 0.13, P -0.243 ± 0.16, G 0.052 ± 0.11, H 0.08 ± 0.29, K -0.278 ± 0.24, L -0.115 ± 0.094, A 0.086 ± 0.15, Y -0.066 ± 0.24, R 0.021 ± 0.12, T 0.209 ± 0.35

From the Human Domainome abundance scans (Beltran et al. 2025)
